Substitutions are numbered along the chain they refer to. Names may count otherwise. Read-outs that look alike come from different tables or passages of the source. Marks after values point to notes of the source that are not given here. Each block holds one molecule with its values, some of them ahead of it.
Columns and labels:
[1] = biological target: Glut1 mRNA expression in differentiated 3T3-L1 adipocytes (Mus musculus, UniProt P16092+Q99N32); experiment: Glut1 Taqman assay; type: cell-based
Glut1 mRNA expression in differentiated 3T3-L1 adipocytes, sequence (P16092 22-822): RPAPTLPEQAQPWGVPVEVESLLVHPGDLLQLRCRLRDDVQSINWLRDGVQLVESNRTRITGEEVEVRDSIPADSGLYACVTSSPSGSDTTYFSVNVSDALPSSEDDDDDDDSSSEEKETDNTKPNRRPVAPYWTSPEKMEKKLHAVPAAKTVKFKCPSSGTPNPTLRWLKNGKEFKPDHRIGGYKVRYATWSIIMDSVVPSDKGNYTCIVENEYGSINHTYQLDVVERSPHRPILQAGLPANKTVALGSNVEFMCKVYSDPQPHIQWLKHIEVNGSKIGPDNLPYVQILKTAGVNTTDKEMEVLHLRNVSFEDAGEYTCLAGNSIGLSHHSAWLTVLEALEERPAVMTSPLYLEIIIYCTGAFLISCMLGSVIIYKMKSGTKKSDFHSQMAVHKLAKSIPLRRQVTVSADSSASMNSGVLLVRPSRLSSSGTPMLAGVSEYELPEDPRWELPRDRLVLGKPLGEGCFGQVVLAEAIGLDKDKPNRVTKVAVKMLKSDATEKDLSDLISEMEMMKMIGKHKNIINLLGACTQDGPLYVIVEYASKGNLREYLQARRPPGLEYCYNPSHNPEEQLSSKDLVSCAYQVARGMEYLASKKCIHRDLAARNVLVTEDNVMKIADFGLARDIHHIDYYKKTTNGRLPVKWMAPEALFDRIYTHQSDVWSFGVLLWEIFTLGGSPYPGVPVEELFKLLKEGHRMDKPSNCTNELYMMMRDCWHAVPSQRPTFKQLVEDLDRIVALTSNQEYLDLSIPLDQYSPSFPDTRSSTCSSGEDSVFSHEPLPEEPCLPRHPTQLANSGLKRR
Glut1 mRNA expression in differentiated 3T3-L1 adipocytes, sequence (Q99N32 whole entry): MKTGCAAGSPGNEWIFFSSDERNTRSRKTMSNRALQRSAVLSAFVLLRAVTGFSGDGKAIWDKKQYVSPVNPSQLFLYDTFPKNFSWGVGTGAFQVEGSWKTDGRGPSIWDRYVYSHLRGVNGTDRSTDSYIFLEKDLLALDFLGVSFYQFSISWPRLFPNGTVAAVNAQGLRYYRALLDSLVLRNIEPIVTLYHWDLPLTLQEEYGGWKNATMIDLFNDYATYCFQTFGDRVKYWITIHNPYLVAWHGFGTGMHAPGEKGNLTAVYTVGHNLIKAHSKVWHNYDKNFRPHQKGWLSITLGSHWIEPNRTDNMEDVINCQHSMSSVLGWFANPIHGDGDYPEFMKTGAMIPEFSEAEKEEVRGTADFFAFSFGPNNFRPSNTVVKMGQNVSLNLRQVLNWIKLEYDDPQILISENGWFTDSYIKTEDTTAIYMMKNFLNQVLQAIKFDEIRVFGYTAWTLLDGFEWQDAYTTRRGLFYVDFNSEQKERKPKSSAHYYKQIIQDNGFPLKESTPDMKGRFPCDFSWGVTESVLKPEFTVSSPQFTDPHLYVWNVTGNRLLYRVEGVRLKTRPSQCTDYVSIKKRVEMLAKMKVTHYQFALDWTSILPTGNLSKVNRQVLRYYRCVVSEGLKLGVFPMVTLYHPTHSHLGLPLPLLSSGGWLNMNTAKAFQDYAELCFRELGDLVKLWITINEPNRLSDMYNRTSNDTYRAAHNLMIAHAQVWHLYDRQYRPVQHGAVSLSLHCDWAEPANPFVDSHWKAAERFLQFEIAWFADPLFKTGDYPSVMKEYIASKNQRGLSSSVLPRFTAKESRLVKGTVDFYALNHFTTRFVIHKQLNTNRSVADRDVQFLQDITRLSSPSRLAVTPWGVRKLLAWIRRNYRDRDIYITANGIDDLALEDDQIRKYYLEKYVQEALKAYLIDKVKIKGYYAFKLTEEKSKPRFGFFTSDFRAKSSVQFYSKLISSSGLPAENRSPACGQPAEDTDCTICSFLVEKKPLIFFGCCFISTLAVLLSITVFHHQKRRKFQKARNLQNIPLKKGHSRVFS
Protocol: Differentiated 3T3-L1 adipocytes were used to measure the Glut1 mRNA expression by qPCR method. Overnight serum starved day 10-14 differentiated 3T3-L1 adipocytes were treated with compounds for 6 hrs. Total RNA was extracted from these cells, and Glut1 and GAPDH mRNA expression was measured using a Quantitect Probe RT-PCR kit and running a quantitative real time PCR reaction in a Taqman machine (Applied Biosystems®). The bioactivity of the compounds was determined by a fold change in Glut1 mRNA levels normalized by the GAPDH mRNA levels from each sample. EC═values as measurements of the potency of the compounds were obtained from the dose response curves in the assay.
3T3-L1 adipocytes were seeded at day 8 in 24-well tissue culture plates (Falcon®, Cat#353047), and incubated in DMEM complete medium (10% FBS, 2 mM L-glutamine, 1% P/S) at 37° C., 5% CO2. […] The medium was aspirated, and then RNA extracted from the cells using the RNeasy mini Kit according to the manufacturer's instructions. RNA was measured at A260 nm using the Spectramax® Plus spectrophotometer.
In Glut1 Taqman assay, differentiated 3T3-L1 adipocytes were used to measure the Glut1 mRNA expression by real-time quantitative PCR (qPCR) method described below. Overnight serum starved day 10-14 differentiated 3T3-L1 adipocytes were treated with compounds for 6 hrs. Total RNA was extracted from these cells, and Glut1 and GAPDH mRNA expression was measured using a Quantitect Probe RT-PCR kit and running a real time quantitative PCR reaction in a Taqman machine. The bioactivity of the compounds was determined by a fold change in Glut1 mRNA levels normalized by the GAPDH mRNA levels from each sample. In cAMP assay, Chinese hamster ovary (CHO) cells over-expressing human GLP-1R(CHO-hGLP-1R) were seeded in 96-well plates in serum-free medium with 300 uM IBMX. Cells were incubated with compounds at RT for 1 hr. The cAMP levels were measured using a CisBio cAMP Kit according to manufacturer's instructions. The bioactivity of the compounds was determined by the EC50 values obtained from the assay (see Table 42).

[2] = biological target: differentiated 3T3-L1 adipocytes (Mus musculus, UniProt P16092+Q99N32); experiment: Glucose uptake assay; type: cell-based
differentiated 3T3-L1 adipocytes, sequence (P16092 22-822): as the sequence (P16092 22-822) above
differentiated 3T3-L1 adipocytes, sequence (Q99N32 whole entry): as the sequence (Q99N32 whole entry) above
Protocol: Differentiated 3T3-L1 adipocytes were treated with compounds in the absence of serum for 24 hrs. Cells were then incubated with ^14C-2-deoxyglucose for 1 hr and glucose uptake into the cells was quantitated in Wallac 1450 MicroBeta (Trilux) instrument. Glucose uptake was expressed in counts per min (CPM). EC50 values as measurements of the potency of the compounds were obtained from the dose response curves in the assay.

[3] = system: SCD1, MOGAT2, FoxA2 mRNA in liver; experiment: Hepatic gene expression (qPCR) in ob/ob mice; type: in vivo; conditions: day 6, 1 mg/kg QD
[4] = system: high-fat diet-induced obese mice; experiment: Oral glucose tolerance test in DIO mice (FGF21 conjugates); type: in vivo; conditions: day 10, 1 mg/kg QD
Protocol: (§1) The efficacy of FGF21 antibodies conjugates was evaluated in two murine obese insulin resistant models—ob/ob mice and high-fat diet-induced obese mice. For both models, male mice (6-8 weeks of age for ob/ob, 12-14 weeks of age for DIO with high-fat diet initiated at 6 weeks of age) were housed 2-4/cage and FGF21 antibody conjugates were administered by SC injection. Body weight was measured daily in the morning. Glucose tolerance was assessed by oral glucose tolerance test. Briefly, mice were fasted for 4-5 hrs in the morning of the day of testing. A basal blood sample was obtained and blood glucose levels were determined using a portable glucometer.

[5] = Mouse pharmacokinetics of FGF21 antibody conjugates; type: in vivo, Swiss-Webster mice; conditions: mouse PK; antibody conjugate at the named site (protein for FGF21ΔH)
Protocol: The PK of FGF21 antibody conjugates were examined in mice after IV or SC administration. […] Antibody conjugates concentrations in serum were determined using an ELISA which captured the FGF21 portion of the antibody conjugates through a monoclonal anti-hFGF21 antibody bound to a 96-well plate. FGF21 antibody conjugates bound to the plate were detected through an anti-hFc monoclonal antibody, and concentrations were determined using a standard curve of the PK dosing solution diluted into serum-containing assay buffer. SC bioavailability was calculated as the ratio of the area-under the curve (AUC) of the SC serum concentration profile divided by the AUC of the IV serum concentration profile.

[6] = system: high-fat diet-induced obese mice; experiment: Serum lipids in DIO mice; type: in vivo; conditions: day 10, 1 mg/kg QD
[7] = Body weight and liver weight in ob/ob mice; type: in vivo; conditions: for mean liver weight: FIG. 5B
Protocol: as §1

ob/ob mice = experiment: Oral glucose tolerance test in ob/ob mice (FGF21 conjugates); type: in vivo; conditions: for mean glucose AUC % during OGTT: FIG. 6B; for Mean Glucose AUC (% of vehicle control) during OGTT: FIGS. 4A/4B
Protocol: as §1

[8] = Stability assay of FGF21ΔH-D79C; type: physicochemical
Protocol: FGF21ΔH-D790 mutant protein was produced in E. coli and purified as described above. FGF21ΔH-D790 was expressed from 1 L of culture. A 150 mg inclusion body was obtained and 85 mg purified protein was obtained, representing a 60% yield. To test the stability of FGF21ΔH-D790 as well as FGF21ΔH (SEQ ID NO:2), freshly thawed samples were kept at 4° C. over seven days, and examined for their integrity by RP-HPLC, SEC_HPLC, Ellman assay and SDS-PAGE on day 0, 3 and 7. […] PBS (pH7.4) and 20 mM Tris-HCl 50 mM NaCl (pH7.5) made no significant difference of stability of FGF21ΔH-D79C.
It is possible that the solubility of FGF21ΔH-D79C may be reduced at pH6.0. The stability of FGF21ΔH-D79C was examined upon multiple freeze/thaw cycles. The proteins were repeated to freeze (−80 C) and thaw (4° C.) 9 times.

DIO mice = experiment: Sub-chronic and single dose efficacy of ABC-1 in DIO mice (body weight, food intake, OGTT, cholesterol, liver triglycerides); type: in vivo; conditions: Table 54: DIO mice, single SC 0.6 mg/kg
Protocol: Sub Chronic Dose Efficacy. […] All compounds were dosed SC once weekly, body weight and food intake was measured twice weekly, and an OGTT was conducted on day 17, 3 days after the 3rd weekly dose. On day 20, liver and serum samples were collected for lipid analysis.
All compounds were administered SC on day 0, body weight was measured twice weekly, and OGTT was conducted on day 7, 13, and 21. […] The sustained efficacy of the ABC-1 in vivo supports once weekly dosing of the compound.
Sub Chronic Dose Efficacy. […] All compounds were administered SC once weekly. Body weight was measured twice weekly, and an OGTT was conducted 3 days after the 3rd weekly dose.

[9] = differentiated 3T3-L1 adipocytes, 6 hrs, protein or antibody conjugate as labelled, read-out: Glut1 Taqman assay EC50
[10] = 3T3-L1 adipocytes, 24 hrs, unconjugated protein

activity in Glut1 Taqman assay (in words) ([1]; 3T3-L1 adipocytes): dose-dependent Glut1 induction
EC50 ([1]; 3T3-L1 adipocytes, serum-free DMEM 0.2% BSA, 6 hrs, Taqman quantitative real-time PCR, read-out: Glut1 RNA expression EC50): 3.39 nM
EC50 ([1]; unconjugated FGF21 mutant protein, n in parentheses, read-out: Glut1 Taqman unconjugated Protein EC50): 2.3 nM
EC50 ([2]; unconjugated protein (per Examples 18-21), n in parentheses): 12 nM
B1: FGF21ΔH: FGF21 with H1 absent, L146 (SEQ ID NO:2), produced from E. coli (protein, listed as Homo sapiens)
chain: PIPDSSPLLQFGGQVRQRYLYTDDAQQTEAHLEIREDGTVGGAADQSPESLLQLKALKPGVIQILGVKTSRFLCQRPDGALYGSLHFDPEACSFRELLLEDGYNVYQSEAHGLPLHLPGNKSPHRDPAPRGPARFLPLPGLPPALPEPPGILAPQPPDVGSSDPLSMVGPSQGRSPSYAS
Mean fold change of mRNA expression, FoxA2 (SEM) [3]: 1.23 (0.08) fold
Mean fold change of mRNA expression, MOGAT2 (SEM) [3]: 0.37 (0.05)** fold
Mean fold change of mRNA expression, SCD1 (SEM) [3]: 0.95 (0.06) fold
Glucose AUC during OGTT (% of vehicle control) [4]: 75*** % of vehicle control
% SC BioAv [5]: 96%
IV T1/2 [5]: 24 min
SC T1/2 [5]: 30 min
Mean values of serum lipids NEFA (mM) (SEM) [6]: 0.40 (0.04) mM
Mean values of serum lipids TG (mg/dL) (SEM) [6]: 92 (9.6)** mg/dL
Cumulative body weight change, mean body weight ([7]; FIG. 5A, single SC dose 0.6 mg/kg): 3.2 g
Cumulative body weight change, mean body weight ([7]; FIG. 5A, single SC dose 1 mg/kg): 2.5 g
mean liver weight ([7]; single SC dose 0.6 mg/kg): 2.4 g
mean liver weight ([7]; single SC dose 1 mg/kg): 2.2 g
Cumulative body weight change, mean body weight ([7]; FIG. 6A, single dose, dose not given): 1.9 g
mean glucose AUC % during OGTT (ob/ob mice; ob/ob mice, single dose, dose not given): 63%
Mean Glucose AUC (% of vehicle control) during OGTT (ob/ob mice; ob/ob mice, single SC dose 0.6 mg/kg): 103 % of vehicle control
Mean Glucose AUC (% of vehicle control) during OGTT (ob/ob mice; ob/ob mice, single SC dose 1 mg/kg): 74 % of vehicle control
Mean Glucose AUC (% of vehicle control) (ob/ob mice; ob/ob mice, OGTT on day 6, 1 mg/kg QD): 61** % of vehicle control
Glucose AUC during OGTT (% of vehicle control) (ob/ob mice; ob/ob mice, day 6, 1 mg/kg QD): 67*** % of vehicle control
GTT* (% AUC of Ctrl) (ob/ob mice; protein, 1 mg/kg Qd): 67 % AUC of Ctrl

EC50 [1, 9]: 2.6 nM
EC50 [2, 10]: 1.7 nM
B2: FGF21ΔH-K56-K59R-K69R-K122: FGF21 lysine mutant, SEQ ID NO:21 (protein, listed as Homo sapiens)
chain: B1 chain with K55R, K58R, K68R

EC50 [1, 9]: 2.1 nM
B3: FGF21ΔH-D79C: FGF21 cysteine mutant, SEQ ID NO:12 (protein, listed as Homo sapiens)
chain: B1 chain with D78C
stability upon freeze/thaw cycles ([8]; freeze (−80 C) and thaw (4° C.) 9 times, RP-HPLC, SEC and Ellman assay): Neither sample showed any difference between cycle 1 and cycles 9
stability (oxidation, dimerization) ([8]; neutral pH 7.4, 4° C., seven-day incubation): stable
portion oxidized ([8]; pH 6.0, 4° C., three-day incubation): more than half
Cumulative body weight change, mean body weight ([7]; FIG. 6A, single dose 2 mg/kg): 2.1 g
mean glucose AUC % during OGTT (ob/ob mice; ob/ob mice, single dose 10 mg/ml (so in the source)): 54%

EC50 ([1]; Glut1 Taqman, 3T3-L1 adipocytes, 6 hrs, read-out: FGF21 (Glut1) EC50): 2.1 nM
B4: FGF21: Fibroblast growth factor (FGF) 21, wild type (protein, listed as Homo sapiens)
chain: B1 chain
Mean Body Weight Change (g) (SEM) (DIO mice; Day 7): +1.4 g
Mean Glucose AUC (% of vehicle control) (DIO mice; OGTT Day 7): 99 % of vehicle control

EC50 [1, 9]: 1.3 nM
EC50 [2, 10]: 5.2 nM
B5: FGF21ΔH-K56R-K59R-K69-K122R: FGF21 lysine mutant, SEQ ID NO:20 (protein, listed as Homo sapiens)
chain: B1 chain with K55R, K58R, K121R
